Reference: IntAct's records for PubMed 20531387

B1: Centrosomal P4.1-associated protein (Homo sapiens), Q9HC77 (parent)
chain: MFLMPTSSELNSGQNFLTQWMTNPSRAGVILNRGFPILEADKEKRAAVDISTSFPIKGTHFSDSFSFINEEDSLLEEQKLESNNPYKPQSDKSETHTAFPCIKKGPQVAACHSAPGHQEENKNDFIPDLASEFKEGAYKDPLFKKLEQLKEVQQKKQEQLKRQQLEQLQRLMEEQEKLLTMVSGQCTLPGLSLLPDDQSQKHRSPGNTTTGERATCCFPSYVYPDPTQEETYPSNILSHEQSNFCRTAHGDFVLTSKRASPNLFSEAQYQEAPVEKNNLKEENRNHPTGESILCWEKVTEQIQEANDKNLQKHDDSSEVANIEERPIKAAIGERKQTFEDYLEEQIQLEEQELKQKQLKEAEGPLPIKAKPKQPFLKRGEGLARFTNAKSKFQKGKESKLVTNQSTSEDQPLFKMDRQQLQRKTALKNKELCADNPILKKDSKARTKSGSVTLSQKPKMLKCSNRKSLSPSGLKIQTGKKCDGQFRDQIKFENKVTSNNKENVTECPKPCDTGCTGWNKTQGKDRLPLSTGPASRLAAKSPIRETMKESESSLDVSLQKKLETWEREKEKENLELDEFLFLEQAADEISFSSNSSFVLKILERDQQICKGHRMSSTPVKAVPQKTNPADPISHCNRSEDLDHTAREKESECEVAPKQLHSLSSADELREQPCKIRKAVQKSTSENQTEWNARDDEGVPNSDSSTDSEEQLDVTIKPSTEDRERGISSREDSPQVCDDKGPFKDTRTQEDKRRDVDLDLSDKDYSSDESIMESIKHKVSEPSRSSSLSLSKMDFDDERTWTDLEENLCNHDVVLGNESTYGTPQTCYPNNEIGILDKTIKRKIAPVKRGEDLSKSRRSRSPPTSELMMKFFPSLKPKPKSDSHLGNELKLNISQDQPPGDNARSQVLREKIIELETEIEKFKAENASLAKLRIERESALEKLRKEIADFEQQKAKELARIEEFKKEEMRKLQKERKVFEKYTTAARTFPDKKEREEIQTLKQQIADLREDLKRKETKWSSTHSRLRSQIQMLVRENTDLREEIKVMERFRLDAWKRAEAIESSLEVEKKDKLANTSVRFQNSQISSGTQVEKYKKNYLPMQGNPPRRSKSAPPRDLGNLDKGQAASPREPLEPLNFPDPEYKEEEEDQDIQGEISHPDGKVEKVYKNGCRVILFPNGTRKEVSADGKTITVTFFNGDVKQVMPDQRVIYYYAAAQTTHTTYPEGLEVLHFSSGQIEKHYPDGRKEITFPDQTVKNLFPDGQEESIFPDGTIVRVQRDGNKLIEFNNGQRELHTAQFKRREYPDGTVKTVYANGHQETKYRSGRIRVKDKEGNVLMDTEL
B2: Centrosomal P4.1-associated protein (Homo sapiens), Q9HC77 (parent)
chain: B1 chain
partner: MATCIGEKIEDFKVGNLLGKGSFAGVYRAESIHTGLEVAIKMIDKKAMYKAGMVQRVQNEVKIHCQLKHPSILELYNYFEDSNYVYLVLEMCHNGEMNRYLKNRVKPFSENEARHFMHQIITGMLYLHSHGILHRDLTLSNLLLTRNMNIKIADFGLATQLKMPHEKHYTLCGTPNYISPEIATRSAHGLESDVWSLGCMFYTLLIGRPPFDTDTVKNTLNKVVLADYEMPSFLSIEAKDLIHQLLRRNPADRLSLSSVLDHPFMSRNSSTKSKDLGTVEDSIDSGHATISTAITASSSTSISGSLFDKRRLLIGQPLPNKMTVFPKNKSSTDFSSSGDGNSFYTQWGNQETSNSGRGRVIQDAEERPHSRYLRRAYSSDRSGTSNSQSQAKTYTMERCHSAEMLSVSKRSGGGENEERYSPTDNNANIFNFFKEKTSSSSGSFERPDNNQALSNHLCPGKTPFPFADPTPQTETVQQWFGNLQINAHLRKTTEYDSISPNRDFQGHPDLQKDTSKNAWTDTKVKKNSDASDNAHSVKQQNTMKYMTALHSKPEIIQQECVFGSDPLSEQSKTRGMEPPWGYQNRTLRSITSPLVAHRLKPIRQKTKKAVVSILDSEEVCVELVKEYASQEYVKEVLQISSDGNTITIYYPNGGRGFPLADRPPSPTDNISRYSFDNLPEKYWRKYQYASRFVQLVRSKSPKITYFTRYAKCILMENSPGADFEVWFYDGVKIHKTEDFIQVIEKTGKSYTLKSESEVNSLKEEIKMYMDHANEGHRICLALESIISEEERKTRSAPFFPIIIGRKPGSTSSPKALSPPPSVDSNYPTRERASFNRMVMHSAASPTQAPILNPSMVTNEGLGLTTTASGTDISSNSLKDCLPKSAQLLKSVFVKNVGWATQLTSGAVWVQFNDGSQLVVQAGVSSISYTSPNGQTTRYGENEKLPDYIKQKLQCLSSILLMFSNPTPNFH

Variants of: B1
Details: with plk2_human PLK2, Q9NYY3
Sequence of plk2_human PLK2, Q9NYY3 (Q9NYY3 whole entry, looked up): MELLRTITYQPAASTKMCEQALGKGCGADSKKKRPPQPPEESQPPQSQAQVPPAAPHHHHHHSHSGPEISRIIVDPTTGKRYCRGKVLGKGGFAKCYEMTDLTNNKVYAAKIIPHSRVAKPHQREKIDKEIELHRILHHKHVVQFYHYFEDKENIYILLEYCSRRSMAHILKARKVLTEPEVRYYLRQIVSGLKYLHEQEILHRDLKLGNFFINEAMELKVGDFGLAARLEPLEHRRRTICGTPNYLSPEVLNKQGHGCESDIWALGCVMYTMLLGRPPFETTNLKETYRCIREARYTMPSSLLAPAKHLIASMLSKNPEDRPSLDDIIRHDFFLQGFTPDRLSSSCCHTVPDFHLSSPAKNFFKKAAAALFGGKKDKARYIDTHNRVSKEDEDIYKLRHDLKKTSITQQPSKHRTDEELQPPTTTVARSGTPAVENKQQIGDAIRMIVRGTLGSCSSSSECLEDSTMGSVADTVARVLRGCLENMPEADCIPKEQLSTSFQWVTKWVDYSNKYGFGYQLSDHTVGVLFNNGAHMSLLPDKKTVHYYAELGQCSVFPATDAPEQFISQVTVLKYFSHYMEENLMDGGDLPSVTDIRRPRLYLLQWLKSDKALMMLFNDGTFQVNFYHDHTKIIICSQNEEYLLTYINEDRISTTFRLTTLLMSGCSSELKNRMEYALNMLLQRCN

effect of a mutation on the interaction | Variant
decreasing interaction | S589A

Variants of: B1
Details: with plk2_human PLK2, Q9NYY3
Remark: another data set of the same source

effect of a mutation on the interaction | Variant
disrupting interaction | S589A
disrupting interaction | S595A

Variants of: B1
Details: with plk2_human PLK2, Q9NYY3
Remark: another data set of the same source

effect of a mutation on the interaction | Variant
decreasing interaction | S595A

Variants of: B2
Details: with plk4_human PLK4, O00444

effect of a mutation on the interaction | Variant
disrupting interaction | S595A
disrupting interaction | S589A
